The data set can be described thus: label from the status in PepcDB records.
As for “MGSASIGYQFGISARFYGNFNLSSDITVSSLPCKLDVSIKSLFSAPSSTHKEYSNRARVCSLPNTDGYCDEKFETPILDSIETPLQLKNLSVKELKLLADEIRTELHSVLWKKTQKSMNPSFAAIELTLALHYVFRAPVDNILWDAVEQTYAHKVLTRRWSAIPSRQNSGISGVTSRLESEYDSFGTGHGCNSISAGLGLAVARDMKGKRDRVVAVIDNVTITAGQAYEAMSNAGYLDSNMIVILNDSRHSLHPNMEEGSKASISALSSIMSKIQSSKVFRKFRELAKAMTKRIGKGMYEWAAKVDEYARGMVGPTGSTLFEELGLYYIGPVDGHNIEDLVCVLREVSSLDSMGPVLVHVITEGNRDAETVKNIMVKDRRTYSDCFVEALVMEAEKDRDIVVVHAGMEMDPSLLTFQERFPDRFFNVGMAEQHAVTFSAGLSSGGLKPFCIIPSAFLQRAYDQVVHDVDRQRKAVRFVITSAGLVGSDGPVQCGAFDIAFMSSLPNMIAMAPADEDELVNMVATAAYVTDRPVCFRFPRGSIVNMNYLVPTGLPIEIGRGRVLVEGQDVALLGYGAMVQNCLHAHSLLSKLGLNVTVADARFCKPLDIKLVRDLCQNHKFLITVEEGCVGGFGSHVAQFIALDGQLDGNIKWRPIVLPDGYIEEASPREQLALAGLTGHHIAATALSLLGRTREALLLMS”, the protein production result is recorded as “failed”.
Take “MQWDPGGATESRSKLYIYLRFLRIEQVFFSLPMAYMGAFLAIREIPPIQVLILMFFSLFFLRTAGMTNDNLADREIDAMNPRTKSRPLVTGKITVREAKLLITISLIGFFITAYLINLYALIFAPIVALIVMSYPYMKRYTAFANYHLASIQGLAVFSGAVASLGLYAKSFTQLVTGIPWLFVISTVFWAVGFDLYNHIPDADFDKKMGLHSFAVLLGDRALMFAGLNQLISVLLALFGDIQFNLGIIAYIATILHGLIMGYAYYSATRGNFGRAFYYNIYSSIVLGIGIIIDIIV”: the protein production entry is recorded as “failed”.
The result for “MKNRETDSNVVTLYVTRHGKTILNTNHRAQGWADSPLVEKGVEVATNLGTGLKDIHFMNAYSSDSGRAIETANLVLKYSEQSKLKLEQRKKLRELNFGIFEGEKLDNMWDAVGKAAGVTSPEELLKFSIQEVIDLIRAADPTKQAEDWELFSTRIKAEIDKISEEAAKDGGGNVLVVVHGLLITTLIEMLDSSKTKLGVENASVTKIVYQDGIYTVESVGDMSYVAKGKESVEI” reads “not failed”.
With “MIDVPFLKNVTLKKENIPSFSAYPYCLPAIRTLQSLAFHPNVTFIIGENGTGKSTLLEGIAIALGFNAEGGTKNFRFSTNDSHSSLHEYLRISKSFNTPSDGFFLRAESFYNVASYIDEIDADLEARGNPVIDSYGGISLHEQSHGESFFSLFMNRFSGQGLYILDEPEAALSPMRQLSMLIRMHELAEQGSQFVIATHSPILMAYPESTIYSLTQEGIQESALEDTEHYQTTKLFFENRDRLFHHLFNSLEHHHHHH”, the protein production result is recorded as “not failed”.
The result for “MSDRKTMWDERYDTTDFVYGREPNAFLAEVVQQIPPGDVLCLAEGEGRNAVFLAKQGHRVLAVDSSAVGLVKAARLAEESGVRIETETADLAEFAIEPVCWDAIVSIFCHVPPQVRRALHRKVVEGLRPGGLFILEAYTPAQLKLRTGGPPTEEVMMTLAGLREELAGLEFLQAREIEREVVEGRFHTGRGAVVQVVARKP” reads “failed”; that for “MQVNIILLAAGKGQRFQSSSPNKIGCATIKQLARINDKPLIVHSIDKLQPLLKNAYVHNFFVTLGANKNAIQTVLPQDISVIASQHWAEGMGHTLAESVHSIKATSSHVLVALADQALITTEHYQELLSASKEQPNKIIATLCEGQLMAPAIFPEKYFPLLVKIQGDKGAGKLLLQHAKKADAITCEDAKIDIDTFSDLERVRQHLEYALQDNQQSSL”, “failed”.
The value for “MNIPAAEPRARMTLAEFHRLLADQHPFAQVLGIDVVDIGHGTARAVLPARDTHQRLGGIVAGPMLMGLADLTMYAAVVGATGQAGAVTANLTIHFLRKTSGAAVIADARVLKTGRLAMAEAILRCDGADEPVAHVVSAWAVPAP” was “failed”; that for “DLSREADQALQEIVRQTQETAQMCLLNGRKYTVALMKEGERHFRISSNIGENAPIPWTASGRLLLGHLSDGQIVDLIDERDFVLPDGERLPLETFLKQIRQATEDGFFSFDSVADTFTHCFAAPVRDEHGVCICTLCIVAPRADAQRNYQQYRRVLIDSANRLARRIN” was “failed”.
In the case of “MQCRDHSTHLVSLPNSQGPAVPFTMRRPVRPPSVPMSRYRTAPLATTELPPGIPFIIGNELAERFSYYGMRAILVVFMTRYLVDAAGNPAPMQEGEAKGYFHLFVSLTYFTPFLGALLADGVLGKYRTIIALSLVYCLGHFALALDDTRTGLLLGQSLIALGAGGIKPCVSAHVGDQFGQSNRHLLSQIYGWFYLAINLGAFVSMLLIPWLLERHGASVAFAVPGLLMLIATLVFWAGRHRFVHIPPGGMRFIREAWSSEGRRGVGRLIGVFLFITMFWALFDQTGSSWVLQSQRMDRVLFGHAILPSQIQAANPLLIVLLTPFFHHLLYPALARLIPMTALNKIALGLSFTVLAFALAAWIQMRIDTGLKPSIGWQLLAYLLLTSAEVMVSITSLEFAYTQAPLTMKSFVMALYLGAVALGNLFTALVNFWIERSKTPWLDGAGYFWFFTGLMLATALGFFAYSRNYREELHLQTER”, the protein production entry is “failed”.
The value for “MAFQLHPRLQQDCIVLGNLPLCKVLLIKEDIGPWLILVPRIEELKEIHHMTDEQQIQFIKESSAVAQLLEDNFSPDKINIGALGNLVPQLHIHHIARFTTDVAWPGPVWGNTTGVIRAQSSQTQLVDLLRDKLSNISGFKRLEHHHHHH” was “not failed”; that for “MLDRLRSIPVRGLFARLFSWLFFGLAFALVAATIVDVFELLNSDEPLMQAMINGVNGSIIALAVYELAMVIRSEYSGRSETHDIVTMMRRTLPRFISTVCVAMSLEGLIMIIKYSQLDLAGNLVYPVAIIASTALLLAALGVFLKMAPKEIGANGCDESCTTK” was “failed”; that for “SKALLFVIIGSVLVMLLLVGVIIMLLMGNKEESKENASKNTQEVQANPMANKNQEAKEGSNIQQYLVLGPLYAIDAPFAVNLVSQNGRRYLKASISLELSNEKLLNEVKVKDTAIKDTIIEILSSKSVEEVVTNKGKNKLKDEIKSHLNSFLIDGFIKNVFFTDFIIQ” was “failed”.
The result for “MIEKKRIEIFPKHMGFFPYMWFVYLLFPIYHLAQASGWKLVIGSGMLIIFIVTYRQLYFVQRTFVFWACIQMVLIFLFALFYNPFMIFFGFFTASAMGFAPNKKVFRVLLCSLVIMLGAFLFVNMNQLTTTSLVNIVPMFILMILTPFGMRNFNQKKMLRNQLDQANEQIKDLVKREERQRIARDLHDTLGHTLSLITLKSQLVEKLIVKNPERASAEAKEITQTSRTALKQLRELISDMRMITVEEELEQIKAILQAANIELEVRQEARSSSLSPIEQNIVGMCLREAVTNVVKHSKATRCAVSVLESQGELILKVEDNGIGLTDQNHDGNGIRGMKERIALIDGFVELGTINPGTLLTVKVPVVIRTGKDEVRA” reads “failed”; that for “MKPENFTSEKIPASLDEVSLNYFAHDGNKREYLTYIPSGYSHTIEAPVILNFHGFGGTASGQLALSDWRDLAEKHGIILIYPQGLELQKGGSHWNPDPVSSDSKSISDDLGFVRRLLKRISKNYSIDKSRVYATGYSNGAGMAYGLAHHMPDLIAGIAPVSGLMNDEYLSTTSGGSPVGLISFNGEEDWVRPVNGINGYLASVADISSHWARENSSTQSIAEQFAQANGDRIERTSYSRDDGLTTVEQYLVDRGGHEWFDLDIEGKDLNQLAWQFLSRLRKQD”, “failed”; that for “MTDLEHAVESNRRAWDASADSHLRGGGWQELSLAVQETGFSCLDETLAGVLRNLDLAGKAAVQVGCNNGREVLSLYAFGVARAVGIDQSAAFLAQARQLAERSPHQPRFVEANAYELPAELNGQFDLLLITIGVLNWMPDIARFFASVSGLLKPGGQLAIYETHPFLEMLEPESERPFELRNDYFTDTPHVSREAIVYEGSGSDTGIASYWYVHPLGDILGGLLGAGLRLSHFKEYPHSNREELYDLYEDGPLAIPMCYTLVAVKA”, “failed”.
For the sequence “MKVFVIGAGLMGRGIAIAIASKHEVVLQDVSEKALEAAREQIPEELLSKIEFTTTLEKVKDCDIVMEAVFEDLNTKVEVLREVERLTNAPLCSNTSVISVDDIAERLDSPSRFLGVHWMNPPHVMPLVEIVISRFTDSKTVAFVEGFLRELGKEVVVCKGQSLVNRFNAAVLSEASRMIEEGVRAEDVDRVWKHHLGLLYTLFGPLGNLDYIGLDVAYYASLYLYKRFGDEKFKPPEWLQEKIKKGEVGVKAGKGIYEYGPKAYEERVERLKKLLRFLGLE”, the protein production entry is on record as “not failed”.
For “MAIKGPRKHLKRLAAPANWQLPRKVKTFTVRPSPGPHSMDKSLPLLLVVRDVLKYADNAREAKKIIQTGKILIDGLKRKEYKHPAGLMDVLSIPEMDETYLVLFDESGRISLKKTDKTDVKLCKIVNKTVVKGGNIQLNLHDGRNQIVKVSDAAKAEEDVYKTGDSVLISIPEQSIAGHVAFGEGKLAYITGGKHVGEFAKIVEVENRALYSDIVTLENKDGEKFKTVKPYVFIVGQDEPVISMLEHHHHHH”, the protein production entry is “not failed”.
In the case of “MNDGDGTPAAAARERRFGPLGTALVIIPTYNEAENIKAIVTRVREAVPEAHVLVADDNSPDGTGKLADELAAADDHVQVMHRKGKEGLGAAYLAGFRWGLEHGYGVLIEMDADGSHQPEELPRLLTALKGADLVLGSRWVPGGRVVNWPKSREIISRGGSMYSRIALDLPLRDITGGYRAFRRETLEGLGLEEVASQGYCFQVDLARRAIKAGYHVVEVPITFVERELGDSKMSRDILVEALWRVTTWGVGERVGKVLGRDRRSGTAADGQTASSGTDGRTASSDRSTDSLDESAKASDAKA”, the protein production result was “failed”.
Turning to “MRAMSKFSRIGLAGVVGAALHAILANHLAPAVQQRLPIGRVSLTFFLALLSALAAGAVLARLAPRARVAALAVAALAFLLLAAATTWLQQCTPAQLAAIDAATPLGCNLGLYNRARAHLPPDGRPAELAPGVWFDRHGLSYACLPPEAQATHLRVALADYALALVGMSLGALLGARQRRRRDQD”, the protein production result was “failed”.
Take “MNGGTFTTGKEKERAGIYFNFKTTAQERVSLSERGTVALPVASSWGEAKTFVSISSVEDLNKKVGLSIDDPSLLLLREAKKNAKTVLMYRLTEGVRASADIAEGVKATAVYGGTKGNDIIIRINQNVLDANSFDVTTYMDESEVDKQTVKKAEELTANGYVTFTGTGDLSSTIPLTGSEGDTAAETLNASAGIRLSGGTDKAPVNSDYTDFLAAAETESFDVIALPVAEGDQLKATFAAFIKRLRDGQGQKVQGVTANYAGDYEGIINVTEGVLLEDGTEVTPDKATAWVAGASAGATFNQSLTFVEYEGAVDVLHRLDHDTIVERLGKGEFLFTFDARDKSVSVEKDINSLVTFTAEKNKKFAKNKIVRVLDAVNNDLTRELKALIKSRKGSGSDIPASEDGLQYVKTMITQYMTTLQDAGGITGFDSDEDITISMNEDRDGFLIDLLYSLSTQQKNSTLMWRLEHHHHHH”: the protein production entry is recorded as “not failed”.
The result for “MPNANEDNPSALSQVQRRAVSELLRVSPVADELARRFQEAGFSLALVGGSVRDALLGRLGNDLDFTTDARPEDVLKIVRPWADAMWEVGIAFGTVGAQKEGYQIEVTTYRSEAYDRTSRKPEVSYGDSIEEDLVRRDFTVNAMAVALPEKEFIDPHGGLDDLAARILRTPGTPEESFSDDPLRMMRAARFAAQLDFEVAPDVVTAMTEMAGRIDIVSAERVRDELNKLVLSAHPRKGLTLLVDTGLADHVLPELPALRLERDEHHRHKDVYDHSLIVLEQAIALEENGPDLTLRLAALLHDIGKPRTRRFEKDGRVSFHHHEVVGAKMTKKRMTALKYSNDLVKDVSRLVELHLRFHGYGTGEWTDSAVRRYVRDAGPLLDRLHKLTRSDCTTRNKRRAAALSRAYDGLEERIAQLQEQEELDAIRPDLDGNQIMEVLGVGPGPVIGQAYKFLLELRLENGPMEYDAAVAALKEWWAEQN” reads “failed”.

Values taken from a protein production outcome set (Wang et al. 2014).
